Target: ErbB2-Domain4 protein (human) (UniProt P04626)
Experiment: indirect ELISA, ErbB2-Domain4 protein coated at 100 ng/well, antibody in serial dilution, absorbance at 450 nm

- EC50: 100 nM
B1: anti-ErbB2 monoclonal antibody 19G9 (antibody, V domains shown)
VH: LEQSGPGILQPSQTLSLICSFSGFSLSTSGMGVSWIRQPSGKGLEWLAHIYWDDDKRYNPSLKSRLTISKDTSSKQVFLKITSVDTADTATYYCALFAYYNYDGTVDYWGLGTSVTVSS
VL: DIVMTQTPSSLAVSVGEKVTMSCKSSQSLLHSRTRKNYLAWYQQKLGQSPKLLIYWASTRESGVPDRFTGSGSGTDFTLTISSVEAEDLAVYYCKQSYNLYTFGGGTKLEIK
